From publication doi:10.1101/2022.08.28.505448 (bioRxiv, 2022)

T1: GB1-MITF_(81-204) Δ123-127 (UniProt O75030-9 81-204, Δ123-127)
T1 sequence (looked up): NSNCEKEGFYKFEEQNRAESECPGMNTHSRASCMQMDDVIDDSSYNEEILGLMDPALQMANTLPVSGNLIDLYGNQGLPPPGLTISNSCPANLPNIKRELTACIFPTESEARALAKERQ

T2: GB1-TAZ2 (human, UniProt Q09472 1723-1812, C1738A | C1746A | C1789A | C1790A)
T2 sequence (looked up): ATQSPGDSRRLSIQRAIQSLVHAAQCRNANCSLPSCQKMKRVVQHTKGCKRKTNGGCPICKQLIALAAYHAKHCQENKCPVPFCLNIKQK

T3: MITF_(81-204) (UniProt O75030-9 81-204)
T3 sequence (looked up): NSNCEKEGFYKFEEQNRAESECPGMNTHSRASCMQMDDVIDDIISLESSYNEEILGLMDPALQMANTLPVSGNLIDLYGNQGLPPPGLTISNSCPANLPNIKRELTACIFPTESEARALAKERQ

B1: TAZ2 (residues 1723-1812 of p300 with four stabilizing mutations) (domain or fragment, human, UniProt Q09472 1723-1812, looked up)
chain: T2 sequence (looked up)
B2: TAZ1 (residues 346-440 of CBP) (domain or fragment)
chain: not shown

biological target: T1, GB1-MITF_(81-204) Δ123-127; experiment: pull-down

Row | binding result | Binder
1 | binds | B1

biological target: T2, GB1-TAZ2; experiment: peptide or protein array

Row | binding result | Binder
2 | binds | DDVIDDIISAESSYNEEIL (peptide, UniProt O75030-9 117-135, looked up) [MITF_(117-135) peptide, Leu126 mutated to alanine]
3 | binds | DDVADDIISLESSYNEEIL (peptide, UniProt O75030-9 117-135, looked up) [MITF_(117-135) peptide, Ile120 mutated to alanine]
4 | binds | DDVIDDIISLASSYNEEIL (peptide, UniProt O75030-9 117-135, looked up) [MITF_(117-135) peptide, Glu127 mutated to alanine]
5 | binds | DDVIDDAISLESSYNEEIL (peptide, UniProt O75030-9 117-135, looked up) [MITF_(117-135) peptide, Ile123 mutated to alanine]
6 | binds | DDVIDDIASLESSYNEEIL (peptide, UniProt O75030-9 117-135, looked up) [MITF_(117-135) peptide, Ile124 mutated to alanine]
7 | binds | DDVIDDIIALESSYNEEIL (peptide, UniProt O75030-9 117-135, looked up) [MITF_(117-135) peptide, Ser125 mutated to alanine]
8 | binds | ADVIDDIISLESSYNEEIL (peptide, UniProt O75030-9 117-135, looked up) [MITF_(117-135) peptide, Asp117 mutated to alanine]
9 | binds | DAVIDDIISLESSYNEEIL (peptide, UniProt O75030-9 117-135, looked up) [MITF_(117-135) peptide, Asp118 mutated to alanine]
10 | binds | DDVIDAIISLESSYNEEIL (peptide, UniProt O75030-9 117-135, looked up) [MITF_(117-135) peptide, Asp122 mutated to alanine]
11 | binds | DDVIADIISLESSYNEEIL (peptide, UniProt O75030-9 117-135, looked up) [MITF_(117-135) peptide, Asp121 mutated to alanine]
12 | binds | DDAIDDIISLESSYNEEIL (peptide, UniProt O75030-9 117-135, looked up) [MITF_(117-135) peptide, Val119 mutated to alanine]

biological target: T3, MITF_(81-204); experiment: ITC

Row | Kd | Binder
13 | 1.24 ± 0.23 µM | B1
14 | 6.7 ± 0.5 µM | B2
